T1: human FcγRIIa-H variant (Histidine at amino acid 131) (human, UniProt P12318 34-317)
T1 sequence (looked up): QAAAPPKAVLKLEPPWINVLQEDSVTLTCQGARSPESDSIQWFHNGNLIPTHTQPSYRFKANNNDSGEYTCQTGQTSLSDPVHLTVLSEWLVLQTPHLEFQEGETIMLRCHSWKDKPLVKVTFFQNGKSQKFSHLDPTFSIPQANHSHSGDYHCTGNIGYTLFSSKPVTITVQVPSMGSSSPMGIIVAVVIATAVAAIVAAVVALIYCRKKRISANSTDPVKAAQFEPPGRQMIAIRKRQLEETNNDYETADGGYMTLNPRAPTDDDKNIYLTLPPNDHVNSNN


What was measured:
Test in all cases: cell-based or functional assay
[1] = target: T1, human FcγRIIa-H variant (Histidine at …)
FcγRIIIa [2] = target: T2, FcγRIIIa (UniProt P08637 17-254)
[3] = target: T1, human FcγRIIa-H variant (Histidine at …); remark: listed apart in the source
FcγRIIIa [4] = target: T2, FcγRIIIa; remark: listed apart in the source

T2 sequence (P08637 17-254 F176V limits assumed): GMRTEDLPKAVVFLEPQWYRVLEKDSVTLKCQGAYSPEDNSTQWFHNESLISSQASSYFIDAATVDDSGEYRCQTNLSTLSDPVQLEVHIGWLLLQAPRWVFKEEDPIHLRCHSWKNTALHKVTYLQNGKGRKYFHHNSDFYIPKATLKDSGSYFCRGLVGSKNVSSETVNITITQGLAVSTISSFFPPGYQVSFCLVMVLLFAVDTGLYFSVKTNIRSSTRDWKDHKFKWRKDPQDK

Row | EC50 (nM) Mean, FcγRIIa signaling in ADCP reporter assay (Raji target cells, Jurkat/FcγRIIa-H effector cells, luciferase) [1] | EC50 (nM) Mean, FcγRIIIa signaling in ADCC reporter assay (Raji target cells, Jurkat/FcγRIIIa effector cells, luciferase) (FcγRIIIa [2]) | EC50 (nM) Mean, FcγRIIa signaling in ADCP reporter assay (HEK-PD-L1 target cells, Jurkat/FcγRIIa-H effector cells, luciferase) [3] | EC50 (nM) Mean, FcγRIIIa signaling in ADCC reporter assay (HEK-PD-L1 target cells, Jurkat/FcγRIIIa effector cells, luciferase) (FcγRIIIa [4]) | Binder
1 | 7.8 nM | 0.86 nM | – | – | Fc-antigen binding domain construct 43 (CD20) (antibody, human IgG1, kappa) heavy 1: QVQLVQSGAEVKKPGSSVKVSCKASGYAFSYSWINWVRQAPGQGLEWMGRIFPGDGDTDYNGKFKGRVTITADKSTSTAYMELSSLRSEDTAVYYCARNVFDGYWLVYWGQGTLVTVSSASTKGPSVFPLAPSSKSTSGGTAALGCLVKDYFPEPVTVSWNSGALTSGVHTFPAVLQSSGLYSLSSVVTVPSSSLGTQTYICNVNHKPSNTKVDKKVEPKSCDKTHTCPPCPAPELLGGPSVFLFPPKPKDTLMISRTPEVTCVVVDVSHEDPEVKFNWYVDGVEVHNAKTKPREEQYNSTYRVVSVLTVLHQDWLNGKEYKCKVSNKALPAPIEKTISKAKGQPREPQVYTLPPCRDKLTKNQVSLWCLVKGFYPSDIAVEWESNGQPENNYKTTPPVLDSDGSFFLYSKLTVDKSRWQQGNVFSCSVMHEALHNHYTQKSLSLSPGKGGGGGGGGGGGGGGGGGGGGDKTHTCPPCPAPELLGGPSVFLFPPKPKDTLMISRTPEVTCVVVDVSHEDPEVKFNWYVDGVEVHNAKTKPREEQYNSTYRVVSVLTVLHQDWLNGKEYKCKVSNKALPAPIEKTISKAKGQPREPQVYTLPPSRKELTKNQVSLTCLVKGFYPSDIAVEWESNGQPENNYKTTPPVLKSDGSFFLYSKLTVDKSRWQQGNVFSCSVMHEALHNHYTQKSLSLSPGQ not shown heavy 2: not shown light: DIVMTQTPLSLPVTPGEPASISCRSSKSLLHSNGITYLYWYLQKPGQSPQLLIYQMSNLVSGVPDRFSGSGSGTDFTLKISRVEAEDVGVYYCAQNLELPYTFGGGTKVEIKRTVAAPSVFIFPPSDEQLKSGTASVVCLLNNFYPREAKVQWKVDNALQSGNSQESVTEQDSKDSTYSLSSTLTLSKADYEKHKVYACEVTHQGLSSPVTKSFNRGEC
2 | 0.17 nM | 0.055 nM | – | – | Fc-antigen binding domain construct 44 (CD20) (antibody, human IgG1, kappa) heavy 1: QVQLVQSGAEVKKPGSSVKVSCKASGYAFSYSWINWVRQAPGQGLEWMGRIFPGDGDTDYNGKFKGRVTITADKSTSTAYMELSSLRSEDTAVYYCARNVFDGYWLVYWGQGTLVTVSSASTKGPSVFPLAPSSKSTSGGTAALGCLVKDYFPEPVTVSWNSGALTSGVHTFPAVLQSSGLYSLSSVVTVPSSSLGTQTYICNVNHKPSNTKVDKKVEPKSCDKTHTCPPCPAPELLGGPSVFLFPPKPKDTLMISRTPEVTCVVVDVSHEDPEVKFNWYVDGVEVHNAKTKPREEQYNSTYRVVSVLTVLHQDWLNGKEYKCKVSNKALPAPIEKTISKAKGQPREPQVYTLPPCRDKLTKNQVSLWCLVKGFYPSDIAVEWESNGQPENNYKTTPPVLDSDGSFFLYSKLTVDKSRWQQGNVFSCSVMHEALHNHYTQKSLSLSPGKGGGGGGGGGGGGGGGGGGGGDKTHTCPPCPAPELLGGPSVFLFPPKPKDTLMISRTPEVTCVVVDVSHEDPEVKFNWYVDGVEVHNAKTKPREEQYNSTYRVVSVLTVLHQDWLNGKEYKCKVSNKALPAPIEKTISKAKGQPREPQVYTLPPSRKELTKNQVSLTCLVKGFYPSDIAVEWESNGQPENNYKTTPPVLKSDGSFFLYSKLTVDKSRWQQGNVFSCSVMHEALHNHYTQKSLSLSPGQKGGGGGGGGGGGGGGGGGGGGDKTHTCPPCPAPELLGGPSVFLFPPKPKDTLMISRTPEVTCVVVDVSHEDPEVKFNWYVDGVEVHNAKTKPREEQYNSTYRVVSVLTVLHQDWLNGKEYKCKVSNKALPAPIEKTISKAKGQPREPQVYTLPPSRKELTKNQVSLTCLVKGFYPSDIAVEWESNGQPENNYKTTPPVLKSDGSFFLYSKLTVDKSRWQQGNVFSCSVMHEALHNHYTQKSLSLSPGQ not shown heavy 2: not shown light: DIVMTQTPLSLPVTPGEPASISCRSSKSLLHSNGITYLYWYLQKPGQSPQLLIYQMSNLVSGVPDRFSGSGSGTDFTLKISRVEAEDVGVYYCAQNLELPYTFGGGTKVEIKRTVAAPSVFIFPPSDEQLKSGTASVVCLLNNFYPREAKVQWKVDNALQSGNSQESVTEQDSKDSTYSLSSTLTLSKADYEKHKVYACEVTHQGLSSPVTKSFNRGEC
3 | – | – | 0.037 nM | 0.028 nM | Fc-antigen binding domain construct 43 (PD-L1) (antibody, human IgG1, lambda) heavy 1: not shown not shown heavy 2: not shown light: QSALTQPASVSGSPGQSITISCTGTSSDVGGYNYVSWYQQHPGKAPKLMIYDVSNRPSGVSNRFSGSKSGNTASLTISGLQAEDEADYYCSSYTSSSTRVFGTGTKVTVLGQPKANPTVTLFPPSSEELQANKATLVCLISDFYPGAVTVAWKADGSPVKAGVETTKPSKQSNNKYAASSYLSLTPEQWKSHRSYSCQVTHEGSTVEKTVAPTECS
4 | – | – | 0.033 nM | – | Fc-antigen binding domain construct 44 (PD-L1) (antibody, human IgG1, lambda) heavy 1: not shown not shown heavy 2: not shown light: QSALTQPASVSGSPGQSITISCTGTSSDVGGYNYVSWYQQHPGKAPKLMIYDVSNRPSGVSNRFSGSKSGNTASLTISGLQAEDEADYYCSSYTSSSTRVFGTGTKVTVLGQPKANPTVTLFPPSSEELQANKATLVCLISDFYPGAVTVAWKADGSPVKAGVETTKPSKQSNNKYAASSYLSLTPEQWKSHRSYSCQVTHEGSTVEKTVAPTECS
